Like-named read-outs stand apart in the source and are kept apart here.
Legend:
Assay in all cases: transmission electron microscopy
[1] = molecular target: the molecule itself
[2] = molecular target: the molecule itself; remark: listed apart in the source
[3] = molecular target: the molecule itself; remark: listed apart in the source

Protein	stoichiometry N [1]	stoichiometry N [2]	stoichiometry N [3]
human phosphofructokinase-1, platelet isoform (PFKP), recombinant wild type (enzyme, UniProt Q01813-1 1-784, looked up) MDADDSRAPKGSLRKFLEHLSGAGKAIGVLTSGGDAQGMNAAVRAVVRMGIYVGAKVYFIYEGYQGMVDGGSNIAEADWESVSSILQVGGTIIGSARCQAFRTREGRLKAACNLLQRGITNLCVIGGDGSLTGANLFRKEWSGLLEELARNGQIDKEAVQKYAYLNVVGMVGSIDNDFCGTDMTIGTDSALHRIIEVVDAIMTTAQSHQRTFVLEVMGRHCGYLALVSALACGADWVFLPESPPEEGWEEQMCVKLSENRARKKRLNIIIVAEGAIDTQNKPITSEKIKELVVTQLGYDTRVTILGHVQRGGTPSAFDRILASRMGVEAVIALLEATPDTPACVVSLNGNHAVRLPLMECVQMTQDVQKAMDERRFQDAVRLRGRSFAGNLNTYKRLAIKLPDDQIPKTNCNVAVINVGAPAAGMNAAVRSAVRVGIADGHRMLAIYDGFDGFAKGQIKEIGWTDVGGWTGQGGSILGTKRVLPGKYLEEIATQMRTHSINALLIIGGFEAYLGLLELSAAREKHEEFCVPMVMVPATVSNNVPGSDFSIGADTALNTITDTCDRIKQSASGTKRRVFIIETMGGYCGYLANMGGLAAGADAAYIFEEPFDIRDLQSNVEHLTEKMKTTIQRGLVLRNESCSENYTTDFIYQLYSEEGKGVFDCRKNVLGHMQQGGAPSPFDRNFGTKISARAMEWITAKLKEARGRGKKFTTDDSICVLGISKRNVIFQPVAELKKQTDFEHRIPKEQWWLKLRPLMKILAKYKASYDVSDSGQLEHVQPWSV	2	4	
PFKP-F649L (enzyme, human, UniProt Q01813-1 1-784, looked up) MDADDSRAPKGSLRKFLEHLSGAGKAIGVLTSGGDAQGMNAAVRAVVRMGIYVGAKVYFIYEGYQGMVDGGSNIAEADWESVSSILQVGGTIIGSARCQAFRTREGRLKAACNLLQRGITNLCVIGGDGSLTGANLFRKEWSGLLEELARNGQIDKEAVQKYAYLNVVGMVGSIDNDFCGTDMTIGTDSALHRIIEVVDAIMTTAQSHQRTFVLEVMGRHCGYLALVSALACGADWVFLPESPPEEGWEEQMCVKLSENRARKKRLNIIIVAEGAIDTQNKPITSEKIKELVVTQLGYDTRVTILGHVQRGGTPSAFDRILASRMGVEAVIALLEATPDTPACVVSLNGNHAVRLPLMECVQMTQDVQKAMDERRFQDAVRLRGRSFAGNLNTYKRLAIKLPDDQIPKTNCNVAVINVGAPAAGMNAAVRSAVRVGIADGHRMLAIYDGFDGFAKGQIKEIGWTDVGGWTGQGGSILGTKRVLPGKYLEEIATQMRTHSINALLIIGGFEAYLGLLELSAAREKHEEFCVPMVMVPATVSNNVPGSDFSIGADTALNTITDTCDRIKQSASGTKRRVFIIETMGGYCGYLANMGGLAAGADAAYIFEEPFDIRDLQSNVEHLTEKMKTTIQRGLVLRNESCSENYTTDLIYQLYSEEGKGVFDCRKNVLGHMQQGGAPSPFDRNFGTKISARAMEWITAKLKEARGRGKKFTTDDSICVLGISKRNVIFQPVAELKKQTDFEHRIPKEQWWLKLRPLMKILAKYKASYDVSDSGQLEHVQPWSV			2
